Measured values as given in patent US20030228593A1.

Biological target: biotinylated 151AcPhe mutant GFP [GFP: P42212]
Assay: SAv-dependent gel-shift assay, 10% native PAGE

streptavidin (from UniProt P22629 37-163)
percent of GFP band retarded: 80%
